For one molecule, observed rate constant results are on record in patent US20090111104A1, “Method for Monitoring Hydrolytic Activity” (Fluorotechnics Pty Limited, priority 2005, published 2009).

In this assay the target is T1, carbonic anhydrase (CA) (Bos taurus, UniProt P00921).
T1 construct: purchased Sigma-Aldrich C7025
Kind of assay: Real-time monitoring of tryptic digestion of carbonic anhydrase using epicocconone with and without SDS. Format: biochemical, bovine. The procedure: • 1 Trypsin digestion was carried out in bicine buffer (pH 8.4) • 2 Protein samples were prepared in 10 mg/mL in 100 mM bicine buffer. • 3 One hundred microliter of the protein sample was used for trypsin digestion.
• 4. The 100 μL of protein samples was reduced by adding 1 μL of 10% SDS and 5 μL of DTT stock for 10 min at 80° C. • 5. Another sample was reduced with only 5 μL of DTT stock for 10 min at 80° C. (no SDS) • 3 The samples were alkylated by adding 4 μL of the iodoacetamide stock at room temperature for 45 min-1 hr. • 4 The remaining iodoacetamide of the samples were neutralised by adding 20 μL of the DTT at room temp for 45 min-1 hr. […] Fluorescence development was monitored in real time every 2 minutes up to 400 minutes using FluoStar (Ex/Em=540±10/[…]±10). • 16. […]
Progress curves were fitted as per Example 6. […] In the presence of a non-denaturing quantity of detergent (open squares) carbonic anhydrase (CA) becomes more hydrophobic and has an increase in fluorescence when exposed to a fluorophore that is sensitive to its environment such as epicocconone. Upon addition of trypsin, the fluorescence drops as per Example 6 but in the sample with no SDS (inverted triangles) the change in fluorescence is reduced by more than 50% compared to in the presence of SDS (open circles). […]

T1 sequence (P00921 whole entry): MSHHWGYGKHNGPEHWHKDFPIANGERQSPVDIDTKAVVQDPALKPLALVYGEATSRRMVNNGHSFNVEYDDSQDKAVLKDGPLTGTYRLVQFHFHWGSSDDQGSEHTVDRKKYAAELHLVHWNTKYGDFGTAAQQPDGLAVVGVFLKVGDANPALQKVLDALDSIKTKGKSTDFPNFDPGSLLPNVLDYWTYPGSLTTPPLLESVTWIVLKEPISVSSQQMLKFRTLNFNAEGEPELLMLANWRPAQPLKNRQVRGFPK

B1: trypsin: Proteomics grade trypsin protease, Sigma-Aldrich T6567 (protein, UniProt P00761 9-231, looked up)
Trypsin: IVGGYTCAANSIPYQVSLNSGSHFCGGSLINSQWVVSAAHCYKSRIQVRLGEHNIDVLEGNEQFINAAKIITHPNFNGNTLDNDIMLIKLSSPATLNSRVATVSLPRSCAAAGTECLISGWGNTKSSGSSYPSLLQCLKAPVLSDSSCKSSYPGQITGNMICVGFLEGGKDSCQGDSGGPVVCNGQLQGIVSWGYGCAQKNKPGVYTKVCNYVNWIQQTIAAN
B1: the observed rate constant reads like this: (with SDS) 0.025 min⁻¹; (without SDS) 0.025 min⁻¹.
